Conditions: Geobacillus stearothermophilus; pH 7.5; Thermal; DSC; KH2PO4/KOH 100 mM; reversible: no; whole UniProt chain shown

B1: Glyceraldehyde-3-phosphate dehydrogenase wild type, P00362 (protein)
chain: MAVKVGINGFGRIGRNVFRAALKNPDIEVVAVNDLTDANTLAHLLKYDSVHGRLDAEVSVNGNNLVVNGKEIIVKAERDPENLAWGEIGVDIVVESTGRFTKREDAAKHLEAGAKKVIISAPAKNEDITIVMGVNQDKYDPKAHHVISNASCTTNCLAPFAKVLHEQFGIVRGMMTTVHSYTNDQRILDLPHKDLRRARAAAESIIPTTTGAAKAVALVLPELKGKLNGMAMRVPTPNVSVVDLVAELEKEVTVEEVNAALKAAAEGELKGILAYSEEPLVSRDYNGSTVSSTIDALSTMVIDGKMVKVVSWYDNETGYSHRVVDLAAYIASKGL
unfolding enthalpy (calorimetric): 408 kcal/mol
